# From patent US20120189540A1 (STEMLINE THERAPEUTICS, published 2012)
# Legend:
# [1] = target: transferrin receptor (human) (UniProt P02786); experiment: cell-based or functional assay
# [2] = target: IL-3 receptor alpha subunit (IL3Rα, CD123) (human) (UniProt P26951); experiment: flow cytometry on ML-1 cells, isotype control-PE at 10 µg/ml [panel ML-1 (1900/cell]
# [3] = target: T1, IL-3 receptor alpha subunit (IL3Rα, CD123) (human, UniProt P26951 19-378); experiment: flow cytometry on TF-1 cells (CD123-expressing), mAb at 0.5 µg/ml, detected with R-PE goat F(ab')2 anti-mouse IgG, MOPC-21 isotype control subtracted [panel A]
# T1 construct: whole, on cells; also called IL3Rα chain; alpha subunit of the IL-3 receptor
# T1 sequence (P26951 19-378): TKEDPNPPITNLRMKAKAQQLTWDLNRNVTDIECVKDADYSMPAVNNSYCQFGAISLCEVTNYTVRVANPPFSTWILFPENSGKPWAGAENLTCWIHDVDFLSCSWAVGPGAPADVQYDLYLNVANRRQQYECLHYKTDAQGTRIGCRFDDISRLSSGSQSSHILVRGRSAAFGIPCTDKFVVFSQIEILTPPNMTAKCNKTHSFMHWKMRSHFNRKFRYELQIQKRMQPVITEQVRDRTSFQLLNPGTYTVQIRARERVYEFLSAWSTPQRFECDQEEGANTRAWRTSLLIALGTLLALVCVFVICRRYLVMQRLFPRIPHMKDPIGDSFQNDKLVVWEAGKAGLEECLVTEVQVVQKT
# transferrin receptor (human), sequence (P02786 whole entry): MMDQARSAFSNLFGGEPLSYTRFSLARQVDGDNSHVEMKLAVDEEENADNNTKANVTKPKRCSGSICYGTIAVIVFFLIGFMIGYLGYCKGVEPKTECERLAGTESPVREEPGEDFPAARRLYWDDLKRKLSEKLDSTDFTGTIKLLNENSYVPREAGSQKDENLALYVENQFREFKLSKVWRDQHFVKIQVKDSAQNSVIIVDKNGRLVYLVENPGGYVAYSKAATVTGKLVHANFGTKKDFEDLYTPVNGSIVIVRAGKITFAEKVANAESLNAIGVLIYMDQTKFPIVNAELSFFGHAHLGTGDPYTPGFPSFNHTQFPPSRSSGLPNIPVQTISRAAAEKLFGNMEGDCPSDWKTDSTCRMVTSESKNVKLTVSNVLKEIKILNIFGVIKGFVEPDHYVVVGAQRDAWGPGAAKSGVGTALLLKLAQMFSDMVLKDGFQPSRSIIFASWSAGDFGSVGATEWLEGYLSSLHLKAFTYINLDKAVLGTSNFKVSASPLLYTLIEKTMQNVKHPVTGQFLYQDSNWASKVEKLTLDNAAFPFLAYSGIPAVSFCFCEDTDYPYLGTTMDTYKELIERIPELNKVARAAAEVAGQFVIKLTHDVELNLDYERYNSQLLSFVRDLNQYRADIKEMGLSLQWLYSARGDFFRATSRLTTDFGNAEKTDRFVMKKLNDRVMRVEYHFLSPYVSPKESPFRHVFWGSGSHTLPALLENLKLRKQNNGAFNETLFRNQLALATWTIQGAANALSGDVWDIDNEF
# IL-3 receptor alpha subunit (IL3Rα, CD123) (human), sequence (P26951 19-378): as the sequence (P26951 19-378) above
molecule,measurement,setting,value
HB21(Fv)-PE40 (scFv),"IC50(ng/ml), cytotoxicity (WST-8 cell viability) on ML-1",[1],5.2 ng/mL
same,"IC50(ng/ml), cytotoxicity (WST-8 cell viability) on Molm-14",[1],60 ng/mL
same,"IC50(ng/ml), cytotoxicity (WST-8 cell viability) on TF-1",[1],2.2 ng/mL
isotype control-PE (antibody),"number printed beside the histogram (fluorescence on the FL-2:PE axis, not named on the sheet)",[2],7.1
"monoclonal antibody 26292 (antibody, V domains shown) VH: QVQLQQPGAELVRPGASVKLSCKASGYTFTSYWMNWVKQRPDQGLEWIGRIDPYDSETHYNQKFKDKAILTVDKSSSTAYMQLSSLTSEDSAVYYCARGNWDDYWGQGTTLTVSS VL: DVQITQSPSYLAASPGETITINCRASKSISKDLAWYQEKPGKTNKLLIYSGSTLQSGIPSRFSGSGSGTDFTLTISSLEPEDFAMYYCQQHNKYPYTFGGGTKLEIK",binding result,[3],binds
"monoclonal antibody 32701 (antibody, V domains shown) VH: QIQLVQSGPELKKPGETVKISCKTSGYVFTNYGMNWVKQAPGKGFKWMGWMNTNTGEPTSLEDFKGRFAFSLETSASTAYLQINNLKNDDTATYFCARSGGYDPMDYWGQGTSVTVSS VL: DIVLTQSPASLAVSPGQRATISCRASESVDNYGNTFMHWYQQKPGQPPKLLIYRASNLESGIPARFSGSDSRTDFTLTINPVEADDVATYYCQQSKEDPPTFGAGTKLELK",binding result,[3],binds
"monoclonal antibody 32716 (antibody, V domains shown) VH: QIQLVQSGPELKKPGETVKISCKASGYIFTNYGMNWVKQAPGKSFKWMGWINTYTGESTYSADFKGRFAFSLETSASTAYLHINDLKNEDTATYFCARSGGYDPMDYWGQGTSVTVSS VL: DIVLTQSPASLAVSLGQRATISCRASESVDNYGNTFMHWYQQKPGQPPKLLIYRASNLESGIPARFSGSGSRTDFTLTINPVEADDVATYYCQQSNEDPPTFGAGTKLELK",binding result,[3],binds
